In this assay the target is T1, gC1qR, the receptor of the globular part of the complement protein C1q, from rat brain membrane fractions (rat, UniProt O35796 72-279).
T1 construct: also called ~30 kDa band
T1 sequence (looked up): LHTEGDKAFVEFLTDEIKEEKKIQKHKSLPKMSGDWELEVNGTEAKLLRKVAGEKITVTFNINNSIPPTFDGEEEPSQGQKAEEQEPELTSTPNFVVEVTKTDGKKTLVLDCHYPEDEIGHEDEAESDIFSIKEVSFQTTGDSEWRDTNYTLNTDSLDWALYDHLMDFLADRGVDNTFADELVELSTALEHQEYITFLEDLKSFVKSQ
The assay can be described thus: chemical cross-linking to rat brain membrane fraction, Tricine-PAGE, Western blot with streptavidin-HRP; band identified as gC1q-R by LC-MS/MS. How it is done:
The reaction was terminated using 50 mM Tris buffer, and samples were ethanol precipitated and resolved using Tricine-PAGE and visualised by Western blot analysis by streptavidin-horse radish peroxidase. A clear band at ˜30 kDa (indicated by an arrow) was observed following chemical crosslinking using biotinylated TLQP-21., which was many orders of magnitude greater than the corresponding band in the membrane control lane using unconjugated Sulfo-EMCS cross-linker. b, Membrane fractions of P4 rat brain was applied to either monomeric avidin column attached with TLQP-21 or monomeric avidin column only (“Negative control”). Following considerable washes, proteins bound to the columns were eluted and resolved on SDS-PAGE, followed by silver staining. A ˜30 kDa band (arrow) was apparent in the elutant from the TLQP-21-attached column. C, The ˜30 kDa band was analysed by LC-MS/MS Orbitrap following trypsinisation.
Ccl11 has been linked to inflammation²³, while Cxcl9 is known as a natural antagonist to Ccl11 receptor CCR3²⁴. We then used Sulfo-EMCS-conjugated TLQP-21 to purify and identify receptor(s) for TLQP-21. […] The membrane fractions of rat brain was incubated with the crosslinker-conjugated TLQP-21, and analysed by Tricine-PAGE and Western blotting using Streptavidin-HRP for the biotin tag on TLQP-21.
(Immunoblotting shows a protein as a band on a membrane.)

B1: Sulfo-EMCS cross-linker-conjugated biotinylated TLQP-21 (peptide)
peptide: TLQPPASSRRRHFHHALPPARC
modifications: biotin covalently attached via the amide bond at the N-terminus; Sulfo-EMCS cross-linker conjugated via the sulphydryl group of the extra cysteine at the C-terminus
notes: Used for chemical cross-linking to rat membrane fractions; also called crosslinker-conjugated TLQP-21; Sulfo-EMCS-conjugated TLQP-21
With B1, the binding result is on record as “binds”.
